From patent US12606635B2, “Glypican-2-binding moieties, chimeric antigen receptors and uses thereof” (Nanjing Legend Biotech Co., Ltd., priority 2020, dated 2026)

B1: AS72669VH6-hIgG1Fc: AS72669VH6 VHH fused to human IgG1Fc fragment (protein)
chain: QVQLVESGGGVVQPGGSLRLSCAASRFTYSSYCMGWIRQAPGKGREGVAIFYTGGGRTYYADSVKGRFTISQDNSKNTLYLQMNSLRAEDTAVYYCVAGFYCSGGYWEGDFGYWGQGTLVTVSS
modifications: left off: a dimerising Fc or GST
notes: AS72669VH6 VHH fused to human IgG1Fc fragment
B2: CAS77916-BBz: camel VHH anti-GPC2 CAR (4-1BB, CD3ζ), SEQ ID NO: 207; tested as CAR T cells (protein)
chain: MALPVTALLLPLALLLHAARPQVHLMESGGGSVQAGGSLRLSCATSGYTSSWNCMGWFRQPPGKEREGVATIANRGHSTYYADSVKGRFTISQGNAKNTVYLQMNSLKPEDTAMYYCATDTWACVGISTDFEYWGQGTQVTVSSTTTPAPRPPTPAPTIASQPLSLRPEACRPAAGGAVHTRGLDFACDIYIWAPLAGTCGVLLLSLVITLYCKRGRKKLLYIFKQPFMRPVQTTQEEDGCSCRFPEEEEGGCELRVKFSRSADAPAYKQGQNQLYNELNLGRREEYDVLDKRRGRDPEMGGKPRRKNPQEGLYNELQKDKMAEAYSEIGMKGERRRGKGHDGLYQGLSTATKDTYDALHMQALPPR
modifications: expressed in CAR T cells; CAS77916-BBz
B3: CAS79101-BBz: camel VHH anti-GPC2 CAR (4-1BB, CD3ζ), SEQ ID NO: 215; tested as CAR T cells (protein)
chain: MALPVTALLLPLALLLHAARPQVQLVESGGGSVQAGGSLRLSCAASGDTYSNYCMGWFRQAPGKEREEVAAIDSDGSRRYPDSVKGRFTISKDNAKKILYLQMNSLKPEDTAMYFCATDPKVACARVVEYGGGWYRWGQGTQVTVSSTTTPAPRPPTPAPTIASQPLSLRPEACRPAAGGAVHTRGLDFACDIYIWAPLAGTCGVLLLSLVITLYCKRGRKKLLYIFKQPFMRPVQTTQEEDGCSCRFPEEEEGGCELRVKFSRSADAPAYKQGQNQLYNELNLGRREEYDVLDKRRGRDPEMGGKPRRKNPQEGLYNELQKDKMAEAYSEIGMKGERRRGKGHDGLYQGLSTATKDTYDALHMQALPPR
modifications: expressed in CAR T cells; CAS79101-BBz
B4: CAS77932-BBz: camel VHH anti-GPC2 CAR (4-1BB, CD3ζ), SEQ ID NO: 208; tested as CAR T cells (protein)
chain: MALPVTALLLPLALLLHAARPQVQLKESGGGSVQAGGSLRLSCAVSGYWYSVAWMGWFRQTPGKEREGVAAVLNGGGRRYYADSVKGRFTISQDNSKNTLYLQMNSLKPEDTAMYYCAAGNGVGHPLGPSEYNYWGQGTQVTVSSTTTPAPRPPTPAPTIASQPLSLRPEACRPAAGGAVHTRGLDFACDIYIWAPLAGTCGVLLLSLVITLYCKRGRKKLLYIFKQPFMRPVQTTQEEDGCSCRFPEEEEGGCELRVKFSRSADAPAYKQGQNQLYNELNLGRREEYDVLDKRRGRDPEMGGKPRRKNPQEGLYNELQKDKMAEAYSEIGMKGERRRGKGHDGLYQGLSTATKDTYDALHMQALPPR
modifications: expressed in CAR T cells; CAS77932-BBz
B5: CAS79236-BBz: camel VHH anti-GPC2 CAR (4-1BB, CD3ζ), SEQ ID NO: 216; tested as CAR T cells (protein)
chain: MALPVTALLLPLALLLHAARPQVKLVESGGGSVQAGGSLRLSCAVSGYTYSSYCMAWFRQAPGEEREGVASIDAGGRTTYVDSVKGRFTISKDNAKTSLYLQMNSLKPEDTAMYYCAVDVRTRCGGTWDGEAVYFPYWGQGTQVTVSSTTTPAPRPPTPAPTIASQPLSLRPEACRPAAGGAVHTRGLDFACDIYIWAPLAGTCGVLLLSLVITLYCKRGRKKLLYIFKQPFMRPVQTTQEEDGCSCRFPEEEEGGCELRVKFSRSADAPAYKQGQNQLYNELNLGRREEYDVLDKRRGRDPEMGGKPRRKNPQEGLYNELQKDKMAEAYSEIGMKGERRRGKGHDGLYQGLSTATKDTYDALHMQALPPR
modifications: expressed in CAR T cells; CAS79236-BBz
B6: CAS78117-BBz: camel VHH anti-GPC2 CAR (4-1BB, CD3ζ), SEQ ID NO: 212; tested as CAR T cells (protein)
chain: MALPVTALLLPLALLLHAARPQVKLVESGGGSVQAGGALRLSCIVRRYTYATYSMAWFRQSPGKEREGVAGLDSVGATGYAESVKGRFTISKDNAKNILYLQMNSLKPEDTAMYYCVVDPASAKVTYGSWSTPSYAYWGQGTQVTVSSTTTPAPRPPTPAPTIASQPLSLRPEACRPAAGGAVHTRGLDFACDIYIWAPLAGTCGVLLLSLVITLYCKRGRKKLLYIFKQPFMRPVQTTQEEDGCSCRFPEEEEGGCELRVKFSRSADAPAYKQGQNQLYNELNLGRREEYDVLDKRRGRDPEMGGKPRRKNPQEGLYNELQKDKMAEAYSEIGMKGERRRGKGHDGLYQGLSTATKDTYDALHMQALPPR
modifications: expressed in CAR T cells; CAS78117-BBz
B7: CAS77986-BBz: camel VHH anti-GPC2 CAR (4-1BB, CD3ζ), SEQ ID NO: 211; tested as CAR T cells (protein)
chain: MALPVTALLLPLALLLHAARPQVQLVESGGGSVQAGGSLRLSCAASASGYTYSSDSMAWFRQAPGKEREGVAGISTGGRSTYYADSVKGRFTISQDNAKTTVYLHMNSLKPEDTAMYYCAADGPSMTAIQALGDLYPVDFAWWGQGTQVTVSSTTTPAPRPPTPAPTIASQPLSLRPEACRPAAGGAVHTRGLDFACDIYIWAPLAGTCGVLLLSLVITLYCKRGRKKLLYIFKQPFMRPVQTTQEEDGCSCRFPEEEEGGCELRVKFSRSADAPAYKQGQNQLYNELNLGRREEYDVLDKRRGRDPEMGGKPRRKNPQEGLYNELQKDKMAEAYSEIGMKGERRRGKGHDGLYQGLSTATKDTYDALHMQALPPR
modifications: expressed in CAR T cells; CAS77986-BBz
B8: AS71529VH6-AS70950VH6-hIgG1Fc: tandem AS71529VH6-AS70950VH6 VHH fused to human IgG1Fc fragment (protein)
chain: EVQLVESGGGLVQPGGSLRLSCAVSEYRYSSRYCMGWFRQAPGKGREGVAAIDSNGSADYVDSVKGRFTISKDNSKNTLYLQMNSLRAEDTAMYYCAADHLAYDCYSGATSVFRYWGQGTLVTVSSGGGGSGGGGSGGGGSEVQLVESGGGLVQPGGSLRLSCAISEFTYKNTCVGWFRQAPGKGREGVAAIDSDGNTNYVDSVKGRFTISQDNSKNTVYLQMNSLRAEDTAMYYCAAGAYCGRLLLWIGNYAYWGQGTLVTVSS
modifications: left off: a dimerising Fc or GST
notes: tandem AS71529VH6-AS70950VH6 VHH fused to human IgG1Fc fragment

Experiments:
[1] = molecular target: T1, recombinant human GPC2-His protein (Homo sapiens, UniProt Q8N158); test: SPR (Biacore T200) affinity of anti-GPC2 VHH-hIgG1Fc; details: 1:1 binding model
T1 construct: His
T1 sequence (Q8N158 24-554): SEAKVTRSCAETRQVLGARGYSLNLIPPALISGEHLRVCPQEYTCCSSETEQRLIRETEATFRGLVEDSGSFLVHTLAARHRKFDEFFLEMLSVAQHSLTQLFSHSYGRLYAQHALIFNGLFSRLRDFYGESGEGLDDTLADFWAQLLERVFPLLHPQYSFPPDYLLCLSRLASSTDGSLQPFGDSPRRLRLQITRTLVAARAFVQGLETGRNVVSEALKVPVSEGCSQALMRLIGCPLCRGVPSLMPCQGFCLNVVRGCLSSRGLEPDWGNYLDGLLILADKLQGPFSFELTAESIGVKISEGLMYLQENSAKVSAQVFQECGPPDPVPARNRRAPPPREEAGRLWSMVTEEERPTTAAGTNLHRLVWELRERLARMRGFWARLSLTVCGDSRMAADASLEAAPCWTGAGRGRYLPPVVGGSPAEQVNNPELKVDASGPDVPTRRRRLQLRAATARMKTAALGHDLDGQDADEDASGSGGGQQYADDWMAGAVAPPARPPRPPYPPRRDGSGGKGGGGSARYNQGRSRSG
Protocol: Each of the exemplary anti-GPC2 VHH sequences was cloned into a vector comprising a human IgG1Fc fragment (hlgG1Fc) sequence to facilitate recombinant expression of anti-GPC2 VHH-hlgG1Fc. Recombinant proteins were obtained and purified for SPR assays. The affinity of each anti-GPC2 VHH-hIgG1Fc for GPC2 was determined by SPR using a BIACORE® T200 analytical system (GE Healthcare). Briefly, recombinant human GPC2-His protein was covalently coupled to a CM5(s) sensor chip using an amine coupling kit. Exemplary VHH-hIgG1Fc proteins were serially diluted in running buffer (10 mM HEPES, 150 mM NaCl, 3 mM EDTA, 0.05% Tween-20, pH 7.4) and injected over the chip cell at a flowrate of 100 μL/min for 100 seconds followed by buffer-only injection for 300 seconds to allow for antibody dissociation. The dissociation […] (KD) were determined using the BIACORE® T200 evaluation software version 3.0 (Langmuir binding, local fit, 1:1 binding model).

[2] = tested on: human neuroblastoma cell line SH-SY5Y; test: In vitro cytotoxicity assay (LDH), SH-SY5Y; type: cell-based; details: second group, FIG. 6C
Protocol: The pre-activated T cells were transduced with lentivirus stock in the presence of […] polybrene and 300 IU/mL IL-2. T cells and lentivirus were centrifuged at 1000 g, 32° C. for 1 h and placed in humidified cell culture incubator for transgene expression under suitable conditions. On day 5 or day 7 or day 10 post-transduction, transduced T cells were harvested and co-incubated with tumor cells at an effector (CAR T) to target cell ratio of 10:1 or 5:1 or 2:1 or 1:1 or 0.2:1 for 20 hours. Target cells were human neuroblastoma cell line SH-SY5Y (ATCC, #CRL-2266), human neuroblastoma cell line IMR-32 cells (ATCC, #CCL-127), or human epidermoid carcinoma cell line A-431 (ATCC, #CRL-1555). To assay the cytotoxicity of CAR T cells on tumor cells, the Cytotoxicity Detection Kit (LDH) (Roche, #11644793001) assay reagents were prepared according to manufacturer's protocol. Reaction mix was added to the cell-free supernatant of each sample to detect the LDH released from cells. Optical densities at OD492 nm and OD650 nm were measured by PHERStar Microplate Reader. Baseline LDH released from the target cell in the absence of effector cells and effector cell in the absence of target cells were subtracted from the total LDH amount. The target maximum release was obtained by adding Triton-X100 at a final concentration of 1% to target cells in the absence of effector cells at the time when the cytotoxicity assays initiated. Supernatant from target cells in the absence of effector cells was used for target minimum release. The specific cytotoxicity was calculated by the formula: % Target cell lysis=100*[(OD CAR T cell+Target cell)−(OD CAR T cell)−(OD Target cell)+(OD Buffer background)]/(OD Target Maximum release−OD Target Minimum release).
On day 5 or day 8 or day 10 post-transduction, transduced T cells were harvested and co-incubated with tumor cells at an effector (CAR T) to target cell ratio of 10:1 or 1:1 or 0.2:1 for 20 hours. To assay the cytotoxicity of CAR T cells on tumor cells, the Cytotoxicity Detection Kit (LDH) (Roche, #11644793001) was added to the culture supernatant and the specific cytotoxicity for each CAR T cell construct was measured as described in Example 6.

Molecule	ka [1] [M⁻¹ s⁻¹]	kd [1] [s⁻¹]	cytotoxicity against SH-SY5Y compared with CAS70950-BBz, CAS72052-BBz and CAS72669-BBz [2]
B1	520000	7.7e-05	–
B2	–	–	better cytotoxicity
B3	–	–	better cytotoxicity
B4	–	–	better cytotoxicity
B5	–	–	better cytotoxicity
B6	–	–	better cytotoxicity
B7	–	–	better cytotoxicity
B8	320000	6.1e-05	–
